According to patent US20260234276A1 (DOMAIN THERAPEUTICS, published 2026):
Several values for one entry are separate records, joined by “and”; a condition that tells them apart may be missing. Equal values may be shown once.

Assays:
human CCR8 [1] = molecular target: T1, human CCR8 (human, UniProt P51685 1-355); experiment: cell-based or functional assay
human CCR8 [2] = molecular target: T1, human CCR8; experiment: cell-based or functional assay; remark: listed apart in the source
human CCR8 [3] = molecular target: T1, human CCR8; experiment: flow cytometry, human activated T cells pre-incubated with 200 nM hCCL1
Protocol: (§1) Briefly, 1·10⁵ cells per well in a 96 well plate were incubated with a dilution of unconjugated anti-CCR8 mAb at 10 μg/mL then diluted at 1/3.33, 4 dilution points (during 30 min at 4° C.). […] To determine EC50 value, 8 concentrations of anti-CCR8 mAb were tested. Unbound antibodies were washed away with PBS (Invitrogen by Thermofisher Scientific, Illkirch-Graffenstaden, France) supplemented by 2% Fetal Bovine Serum (Invitrogen by Thermofisher Scientific, Illkirch-Graffenstaden, France) and 2 mM EDTA (Invitrogen by Thermofisher Scientific, Illkirch-Graffenstaden, France). Subsequently, cells are centrifuged (5 min at 400 g) and bound antibody is detected with F(ab′)₂-Goat anti-Mouse IgG (H+L) Cross-Adsorbed Secondary Antibody, Alexa Fluor 488 (dilution 1/500) (Invitrogen by Thermofisher Scientific, Illkirch-Graffenstaden, France) or with F(ab′)₂-Goat anti-Human IgG Fc Secondary Antibody, PE (Invitrogen by Thermofisher Scientific, Illkirch-Graffenstaden, France) (dilution 1/1000) at 4° C. for 30 min. Detection reagent is washed away and cells are centrifuged (5 min at 400 g) and resuspended in 30 μL PBS. Bound detection antibody is quantified on a MacsQuant16 (Miltenyi, Gladbach, Germany) (B1 or B2 channel, 5000 events per acquisition).
(§2) Binding characteristics of anti-CCR8 mAb cellular reactivity was further investigated by testing their binding to activated T cells.

pm6 = pm6 (human, sulfated tyrosines at Y16 and Y17); experiment: ELISA on coated peptide [cont.]
Method in brief: (§3)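 Peptides coated at 500 ng/mL in carbonate/bicarbonate buffer; anti-CCR8 mAbs applied at 1 μg/mL and a 1/10 dilution for 90 min at room temperature. After washing, TMB substrate was developed for 15 min and OD read as a measure of mAb reactivity.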

pm8 = pm8 (human, sulfated tyrosines at Y15, Y16 and Y17); experiment: ELISA on coated peptide [cont.]
Method in brief: as §3

pm3 = pm3 (human, sulfated tyrosine at Y17); experiment: ELISA on coated peptide [cont.]
Method in brief: as §3

pm5 = pm5 (human, sulfated tyrosines at Y15 and Y17); experiment: ELISA on coated peptide [cont.]
Method in brief: as §3

human CCR8 [4] = molecular target: T1, human CCR8; experiment: flow cytometry, human activated T cells
Protocol: as §1, §2

human CCR8 [5] = molecular target: T1, human CCR8; experiment: competition HTRF on HEK-293 cells with hCCR8; blocked ligand CCL1-AF647 [cont.]
pm1 [6] = molecular target: T2, pm1 (human, sulfated tyrosine(s) among Tyr 15, Tyr 16, Tyr 17; marked only by underlining, lost in the text); experiment: ELISA on coated peptide
Protocol: (§4) The specific binding properties of antibodies were evaluated by ELISA with coated CCR8 related peptides (500 ng/mL) in carbonate/bicarbonate buffer. Different peptides were used as described in Table 1 (see Example 1). Each anti-CCR8 mAb was tested at 1 μg/mL then diluted at 1/10. After an incubation at room temperature during 90 min, unbound mAbs were removed by washings. […] After washings, 3,3′,5,5′-tetramethylbenzidine (TMB) (Interchim, Montlugon, France) was added for 15 min. Then the optical density (OD) was determined by using a multiplate reader (Tecan, Lyon, France) and correlated with mAb reactivity on the panel of coated peptides.

pm2 [7] = molecular target: T3, pm2 (human, sulfated tyrosine(s) among Tyr 15, Tyr 16, Tyr 17; marked only by underlining, lost in the text); experiment: ELISA on coated peptide
Protocol: as §4

pm4 [8] = molecular target: T4, pm4 (human, sulfated tyrosine(s) among Tyr 15, Tyr 16, Tyr 17; marked only by underlining, lost in the text); experiment: ELISA on coated peptide
Protocol: as §4

human CCR8 [9] = molecular target: T1, human CCR8; experiment: flow cytometry, HUT78 cells (native CCR8)
Protocol: The same staining protocol was applied on human CCR8 transfected CHO cell line versus wild type CHO cell line, cutaneous T cell lymphoma HUT78 cell line and human activated T cell model.
as §1

CCR8 SNAP-tag = CCR8 SNAP-tag (human, UniProt P51685 1-355, SNAP-tag labelled with Lumi4-Terbium); experiment: cell-based or functional assay
human CCR8 [10] = molecular target: T1, human CCR8; experiment: competition HTRF on HEK-293 cells with hCCR8; blocked ligand CCL1-AF647 [cont.]; remark: listed apart in the source
human CCR8 [11] = molecular target: T1, human CCR8; experiment: cell-based or functional assay; remark: listed apart in the source
human CCR8 [12] = molecular target: T1, human CCR8; experiment: competition flow cytometry on hCCR8 transfected CHO cells; blocked ligand CCL1-AF647 [cont.]
human CCR8 [13] = molecular target: T1, human CCR8; experiment: flow cytometry, hCCR8 transfected CHOK1 cells
pwt1 = molecular target: T5, pwt1 (human); experiment: ELISA on coated peptide [cont.]
T5 construct: also called unmodified peptide
Method in brief: as §3

pm1 [14] = molecular target: T2, pm1; experiment: ELISA on coated peptide [cont.]
Method in brief: as §3

pm2 [15] = molecular target: T3, pm2; experiment: ELISA on coated peptide [cont.]
Method in brief: as §3

pm4 [16] = molecular target: T4, pm4; experiment: ELISA on coated peptide [cont.]
Method in brief: as §3

Chain of pm8 (human, sulfated tyrosines at Y15, Y16 and Y17) (peptide, as listed by the source): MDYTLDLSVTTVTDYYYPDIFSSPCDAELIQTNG
Chain of pm5 (human, sulfated tyrosines at Y15 and Y17) (peptide, as listed by the source): as above
Chain of pm6 (human, sulfated tyrosines at Y16 and Y17) (peptide, as listed by the source): as above
Chain of pm3 (human, sulfated tyrosine at Y17) (peptide, as listed by the source): as above
T2 sequence (peptide, as listed by the source): as above
T4 sequence (peptide, as listed by the source): as above
T3 sequence (peptide, as listed by the source): as above
T5 sequence (peptide, as listed by the source): as above

hCCL1 (100 nM) residual response, Protocol #2, mAb 0.08 µg/mL (human CCR8 [1]) [%] | hCCL1 (100 nM) residual response, Protocol #2, mAb 0.4 µg/mL (human CCR8 [1]) [%] | hCCL1 (100 nM) residual response, Protocol #2, mAb 10 µg/mL (human CCR8 [1]) [%] | hCCL1 (100 nM) residual response, Protocol #3, mAb 0.05 µg/mL (human CCR8 [1]) [%] | hCCL1 (100 nM) residual response, Protocol #3, mAb 0.5 µg/mL (human CCR8 [1]) [%] | hCCL1 (100 nM) residual response, Protocol #3, mAb 5 µg/mL (human CCR8 [1]) [%] | IC50 (Gi2 BRET, pH 6.5) (human CCR8 [2]) | IC50 (Gi2 BRET, pH 7.4) (human CCR8 [2]) | % of labelled cells (human CCR8 [3]) [%] | binding result (pm6) | binding result (pm8) | binding result (pm3) | binding result (pm5) | % of labelled cells (human CCR8 [4]) [%] | binding result (pm1 [6]) | binding result (pm4 [8]) | % of labelled cells (human CCR8 [9]) [%] | % of internalization at 1 µg/ml mAb (HTRF) (CCR8 SNAP-tag) [%] | % of internalization at 10 µg/ml mAb (HTRF) (CCR8 SNAP-tag) [%] | Top plateau value (% of hCCL1 100 nM) with 5 µg/mL mAb, Protocol #3 (human CCR8 [11]) [%] | Binder | further results
62 | 38 | 30 | 94 | 63 | 39 | 0.018 µg/ml and 0.117 nM | 0.029 µg/ml and 0.194 nM | 64 | binds | binds | binds | binds | 79 | binds | binds | 23 |  |  |  | 3-77 (antibody, human IgG1, kappa, humanized, human IgG1 kappa) heavy: not shown light: DIVMTQAAPSLSVTPGESASISCTSSKSLLHSNGNTYLYWFLQKPGQSPQLLIYRMSNLASGVPDRFSGSGSGTAFTLKISRVEAEDVGVYYCMQHREYPFTFGSGTKLEIKRTVAAPSVFIFPPSDEQLKSGTASVVCLLNNFYPREAKVQWKVDNALQSGNSQESVTEQDSKDSTYSLSSTLTLSKADYEKHKVYACEVTHQGLSSPVTKSFNRGEC | IC50 (read off the curve) (human CCR8 [5]): ~0.1 µg/mL; binding result (pm2 [7]): binds
94 | 77 | 31 | 110 | 76 | 33 | 0.077 µg/ml and 0.514 nM | 0.068 µg/ml and 0.452 nM | 92 | binds | binds | binds | binds | 92 | binds | binds | 97 | 139 | 52 |  | 3-79 (antibody, human IgG1, kappa, V domains shown, humanized, human IgG1 kappa) VH: EVQLLESGGGLVQPGGSLRLSCAASGFTFNAYAMNWVRQAPGKGLEWVARIRSKSNDYATYYGDSVKGRFTISRDNSKNTLYLQMNSLRAEDTAVYYCVRGREAYYRYDGGYYAMDVWGQGTTVTVSS VL: DIVMTQSPLSLPVTPGEPASISCRSSKSLLHSNGNTYLYWFLQKPGQSPQLLIYRVSNLASGVPDRFSGSGSGTDFTLKISRVEAEDVGVYYCMQHREYPFTFGQGTKLEIKR | IC50 (read off the curve) (human CCR8 [10]): ~0.2 µg/mL
60 | 35 | 21 | 69 | 39 | 38 | 0.019 µg/ml and 0.125 nM | 0.011 µg/ml and 0.075 nM |  | binds | binds | binds | binds |  |  |  |  |  |  | 149 | 3-46 (antibody, V domains shown) VH: EVQLVETGGGLVQPKGSLKLSCAASGFTFNTNAMNWVRQAPGKGLEWVARIRSKSNYYATYYADSVKDRFTISRDDSQSMLYLQMNNLKTEDTAMYYCVRGREMGNYYSMDYWGQGTSVTVSS VL: DIVMTQAAPSVPVTPGESVSISCRSSKSLLHSNGNTYLYWFLQRPGQSPQLLIYRMSNLASGVPDRFSGSGSGTAFTLRISRVEAEDVGVYYCMQHLEYPFTFGSGTKLEIK | IC50 (read off the curve) (human CCR8 [12]): ~0.3 µg/mL; % positive cells (human CCR8 [13]): 64.7%; MFI fold change to isotype ctrl (human CCR8 [13]): 5.63 fold
77 | 66 | 41 | 73 | 52 | 37 | 0.018 µg/ml and 0.117 nM | 0.034 µg/ml and 0.224 nM |  | binds | binds | binds | binds |  |  |  | 88 | 44 | 36 |  | 3-81 (antibody, human IgG1, kappa, V domains shown, humanized, human IgG1 kappa) VH: QVQLQQSGPEVVKPGASVKVSCKTSGYTFTEYTIHWVRQSHGQSLEWVGGINPNNGNTRYDQKFKGRVTITIDKSSSTAYMELRSLTSEDTAVYYCARVARSSGSGPYAMDYWGQGTTVTVSS VL: DVVMTQSPLSLPVTLGDQASISCRCSQSLLHTNGDTYLHWYLQRPGQSPRLLIYKVSNRFSGVPDRFSGSGSGTDFTLKISRVEAEDVGVYFCSQSTHVPYTFGGGTKVEIKR | binding result (pwt1): binds; binding result (pm1 [14]): binds; binding result (pm2 [15]): binds; binding result (pm4 [16]): binds; EC50 (human CCR8 [9]): 0.2 nM
 |  |  | 102 | 98 | 84 | 0.678 µg/ml and 4.52 nM | 3.43 µg/ml and 22.9 nM |  | binds | binds | binds | binds |  |  |  |  |  |  | 2880 | 3-43 (antibody, V domains shown) VH: QVQLQQPGAELVKPGASVKMSCKATGYTFTGYNMHWVKQTPGQGLEWIGAISPGKGDTSYNLKFKGKATLTTDKSSSTAYMQLSSLTSADSAVYYCARSGGTPFAYWGQGTLVTVSA VL: DVVMTQTPLSLPVSLGDQASISCRSSQSLVHSNGDTYLYWYLQKPGQSPKLLIYKVSNRFSGVPDRFSGSGSGTDFTLKINRVEAEDLGVYFCSQSTHVPYTFGGGTKLEIK | IC50 (read off the curve) (human CCR8 [12]): ~0.7 µg/mL; % positive cells (human CCR8 [13]): 76.2%; MFI fold change to isotype ctrl (human CCR8 [13]): 8.37 fold
